B1: g060g03 (Fab, V domains shown)
VH: EVQLVQSGPEVKKPGASVRVSCKASGYSLKNYGIHWVRQAPGQGLEWMGWISADNGDTTTALNLRGRVSMTTDTSTNTVYMEVKSLRSDDTAIYFCARDFYSGSYRSFDYWGQGTLVTVS
VL: DVVMTQSPSSLSASLGDRVTITCRASQHISNYLNWYQQKPGKAPKLLIYAASSLQSGVPSRFTGSGSGADYTLTISSLQPEDFATYYCQQSYSTSWTFGQGTTVGIK
B2: g060a01 (Fab, V domains shown)
VH: QVQLVQSGPEVKKPGASVRVSCKASGYSFKNYGIHWVRQAPGQGLEWMGWISADNGDTTTALNLRGRVSMTTDTSTNTVYMEVKSLRSDDTAIYFCARDFYSGSYRSFDCWGQGTLVTVS
VL: EIVLTQSPSSLSASLGDRVTITCRASQHISNYLNWYQQKPGKAPKLLICAASSLQSGVPSRFTGSGSGADYTLTISSLQPEDFATYYCQQSYSTSWTFGQGTTVEIK
B3: g060f09 (Fab, V domains shown)
VH: EVQLVQSGAEVKKPGSSVKVSCKTEGGTFSTYVISWMRQAPGQGLEWMGGIVPIFNTPNYAQKFQGRVTITADRSTSTAYMELRSLGSEDTAVYYCARVVGGTRSYYALGFWGQGTTVTVS
VL: DIQLTQSPSSLSASVGDSVTITCRASQGISNFLAWYQKKPGKVPRLLIYGASTLQSGVPSRFSGSGSGTDFTLTISSLQPEDVATYYCQEYSNALIFTFGPGTKVHIK
B4: g060h10 (Fab, V domains shown)
VH: EVQLVESGAEVKKPGSSVKVSCKASGGSFSTYAITWVRQAPGQGLEWMGGIIPIFASRDYAQKFQGRVTITADESTRTVYMELSSLRSDDTAVYYCARVLGGTRLYYALNVWGQGTTVTVS
VL: DIQLTQSPSSLSASVGDRVTITCRASQGISNFLAWYQQKPGKVPELLIYGASTLQSGVPSRFSGSGSGTEFTLTINSLQPEDVATYYCQKYDSGLRFTFGPGTKVDIK
B5: g060g11 (Fab, V domains shown)
VH: EVQLVESGAEVKKPGSSVKVSCKASGGSFSTYIFTWVRQAPGQGLEWMGGINPIFATRDYPKKFQGRVTITADESTRTVYMELSSLTSEDTAVYYCARVLGGTRLYYALNVWGQGTTVTVS
VL: EIVMTQSPSSLSASVGDRVTISCRASQGISNFLAWFQQKPGQVPKLLIYVASTLQSGVPSRFSGSGSGTDFSLTINGLQPEDVATYYCQRYDSGLIFTFGPGTKVEIK
B6: g060d05 (Fab, V domains shown)
VH: KVQLVESGAEVKKPGSSVKVSCKTSGGSFSTYSITWVRQAPGQGLEWMGGINPIFATRDYAQKFQGRVTITADESTRTVYMELRNLRSEDTAVYYCARVFGGTRLYYALNVWGQGTLVTVS
VL: DVVMTQSPSSLSASVGDRVTITCRASQGISNFLAWHQQKPGQVPKLLIYGASTLQSGVPSRFSGSGSGTDFTLTINGLQPEDVATYYCQKYDSGLIFTFGPGTRVEIK
B7: g060d04 (Fab, V domains shown)
VH: KVQLVESGAEVKKPGSSVKVSCKASGGSFSTYAITWVRQAPGQGLEWMGGIIPIFASRDYAQKFQGRVTVTADESTRTVYMELSSLRSDDTAVYYCARVLGGTRLYYALNVWGQGTMVTVS
VL: DVVMTQFPSSLSASVGDRVTITCRASQGISNFLAWYQQKPGKVPELLIYGASTLQSGVPSRFSGSGSGAEFTLTINSLQPEDVATYYCQKYDSGLRFTFGPGTKVDIK
B8: g060h02 (Fab, V domains shown)
VH: EVQLVQSGAEVKKPGSSVKVSCKASGGSFSTYAITWVRQAPGQGLEWMGGIIPIFASRDYAQKFQGRVTITADESTRTVYMEPRSLRSEDTAVYYCARVLGGTRLYYALNVWGQGTLVTVS
VL: EIVLTQSPSSLSASVGDRVTITCRASQGISNFLAWYQQKPGKVPELLIYGASTLQSGVPSRFSGSGSGTDFTLTINSLQPEDVATYYCQKYDSGLRFTFGPGAKVDIK
B9: g060c07 (Fab, V domains shown)
VH: KVQLVQSGAEVKKPGESLKISCQASGYGFTVYWIGWVRQPPGKGLEWLGIIYPGDSDTRYNPSFQGQVTISADKSVSTTYLQWSSLKASDTAIYYCARHLDSYDVFTGYNLGGYMDVWGKGTLVTVS
VL: ETTLTQSPGTLSLSPGERATLSCRASQSVSTNYLAWYRQKPGQAPRLLIHGASSRATGIPDRFSGSGSGTDFTLTISRLEPEDFAVYFCQQYGSSPQTFGQGTRLEIK
B10: g060d11 (Fab, V domains shown)
VH: KVQLVQSGAEVKKPGESLKISCQASGYGFTVYWIGWVRQPPGKGLEWLGIIYPGDSDTRYNPSFQGQVTISADKSVSTTYLQWSSLKASDTAIYYCARHLDSYDVFTGYNLGGYMDVWGKGTLVTVS
VL: ETTLTQSPGTLSLSPGERATLSCRASQSVSTNYLAWYRQKPGQAPRLLIHGASSRATGIPDRFSGSGSGTDFTLTISRLEPEDFAVYFCQQYGSSPQTFGQGTRLEIK
B11: g060g02 (Fab, V domains shown)
VH: EVQLVQSGAEVKKPGESLKISCQASGYGFTVYWIGWVRQLPGKGLEWLGIIYPGDSDTRYNPSFQGQVTISADKSVSTTYLQWSSLKASDTAIYYCARHLDSYDVFTGYNLGGYMDVWGKGTMVTVS
VL: DIQLTQSPGTLSLSPGERATLSCRASQSVSTNYLAWYRQKPGQAPRLLIHGASSRATGIPDRFSGSGSGTDFTLTISRLEPEDFAVYFCQQYGSSPQTFGQGTRLEIK
B12: g060a09 (Fab, V domains shown)
VH: GRAQVQLQESGPEVKKPGASVKVSCKASGYTFNSYGIAWVRQVPGQGLEWMGWISPYSGHTNYAEKVQGRVTMTTDTATSTACMELTSLRSDDTAVYFCARDYSSPYHFDYWGQGTWSPSR
VL: LADVVMTQSPSSLSASVGDRVTISCRASQPISTYLNWYQQKPGKAPKILIFGASRLQSGVPSRFSGSGSGTDFSLTITSLQPEDFATYICQQSKSPPYNFGRGTKLEIK
B13: g060g04 (Fab, V domains shown)
VH: EVQLVQSGPGLVKPSETLSLTCAVSGASVSGGDYYWSWIRQPPGKALEWIGYIYYIGSTNYNPSLKSRLSLSVDTAKSQFSLKLSSVTAADTAIYFCARARRTYSGYDSAFDYWGQGTLVTVS
VL: DVVMTQSPSSLSASVGDRVSITCRASRSVKTYLNWYQQKPGKAPKLLVYGSSSLESGVPSRFSGSGSGTDFTLTISSLQPEDFATYYCQQSFGTPYTFGQGTKLDTK
B14: g060h04 (Fab, V domains shown)
VH: EVQLVQSGPGLVKPSETLSLTCAVSGASVSGGDYYWSWIRQPPGKALEWIGYIYYIGSTNYNPSLKSRLSLSVDTAKSQFSLKLSSVTAADTATYFCARARRTYSGYDSAFDYWGQGTLVTVS
VL: DVVMTQSPSSLSASVGDRVSITCRASRSVKTYLNWYQQKPGKAPKLLVYGSSSLESGVPSRFSGSGSGTDFTLTISSLQPEDFATYCCQQSFGTPYTFGQGTKLDIK

molecular target: T1, Ovalbumin (UniProt P01012 2-386); assay: ELISA, periplasmic extract on coated Ovalbumin
T1 sequence: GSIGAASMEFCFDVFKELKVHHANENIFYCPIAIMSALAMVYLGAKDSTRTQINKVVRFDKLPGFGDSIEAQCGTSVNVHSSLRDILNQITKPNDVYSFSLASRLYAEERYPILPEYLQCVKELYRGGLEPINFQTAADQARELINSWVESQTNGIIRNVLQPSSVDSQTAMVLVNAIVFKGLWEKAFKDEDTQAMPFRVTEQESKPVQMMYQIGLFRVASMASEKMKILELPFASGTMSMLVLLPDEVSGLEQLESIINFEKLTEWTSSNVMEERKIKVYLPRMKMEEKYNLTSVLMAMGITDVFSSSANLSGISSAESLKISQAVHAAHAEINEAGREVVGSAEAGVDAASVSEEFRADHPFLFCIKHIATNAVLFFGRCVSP

Question: Does B1 bind?
Answer: Result: no binding (tested: 10 µg/ml Ovalbumin coat)

Question: Does B2 bind?
Answer: Result: no binding (tested: 10 µg/ml Ovalbumin coat)

Question: Does B3 bind?
Answer: Result: no binding (tested: 10 µg/ml Ovalbumin coat)

Question: Does B4 bind?
Answer: Result: no binding (tested: 10 µg/ml Ovalbumin coat)

Question: Does B5 bind?
Answer: Result: no binding (tested: 10 µg/ml Ovalbumin coat)

Question: Does B6 bind?
Answer: Result: no binding (tested: 10 µg/ml Ovalbumin coat)

Question: Does B7 bind?
Answer: Result: no binding (tested: 10 µg/ml Ovalbumin coat)

Question: Does B8 bind?
Answer: Result: no binding (tested: 10 µg/ml Ovalbumin coat)

Question: Does B9 bind?
Answer: Result: no binding (tested: 10 µg/ml Ovalbumin coat)

Question: Does B10 bind?
Answer: Result: no binding (tested: 10 µg/ml Ovalbumin coat)

Question: Does B11 bind?
Answer: Result: no binding (tested: 10 µg/ml Ovalbumin coat)

Question: Does B12 bind?
Answer: Result: no binding (tested: 10 µg/ml Ovalbumin coat)

Question: Does B13 bind?
Answer: Result: no binding (tested: 10 µg/ml Ovalbumin coat)

Question: Does B14 bind?
Answer: Result: no binding (tested: 10 µg/ml Ovalbumin coat)

Reference: patent publication US20070141048A1 (SYMPHOGEN A S, published 2007)
